Data reported in patent US20230408517A1 (BIO TECHNE, published 2023).
Like-named read-outs stand apart in the source and are kept apart here.

B1: 1035414 (antibody, V domains shown)
VH: QVQLKQSGAELVRPGASVKLSCKTSGYIFTSYWIHWVKQRSGQGLEWIARIYPGTGNTYYNEKFKGKATLTADKSSTTAYMQLSSLKSEDSAVYFCARGEDNLYYYAMDYWGQGTSVTVSS
VL: NIVLTQSPASLAVSLGQRATISCRASESVDSYGTSFMHWYQQKPGQPPKLLIYLASNLESGVPASFSGSGSRTDFTLTIDPVEADDAATYYCQQNNEDPWTFGGGTKLEIK
B2: 1035755 (antibody, V domains shown)
VH: EVQLQQSGAELVRPGALVKLSCKASGFNIKDYYMHWVKQRPEQGLEWIGWIDPENGNSIYDPKFQGKASITADTSSNTAYLQLSSLTSEDTAVYYCATPSATSYFDYWGQGTTLTVSS
VL: QIVLTQSPAIMSASPGEKVTISCSASSSVSYMYWYQQKPGSSPKPWIYRTSNLASGVPARFSGSGSGTSYSLTISSMEAEDAATYYCQQYHSYPYMYTFGGGTKLEIK
B3: 1035752 (antibody, V domains shown)
VH: QVQLQQPGAELVRPGASVKMSCKASGYTFTSHSIHWVKQTPGQGLEWIGAVYPGNGDTSYYQKFKGKATLTADKSSSTAYMHLSSLTSEDSAVYYCARDGYSDYYAMDCWGQGTSVTVSS
VL: DIVMTQSQKFMSTSVGDRVSVTCKASQNVGTNVAWYQQKPGQSPKALIYSASYRYSGVPDRFTGSGSGTDFTLTINNVQSEDLAEYFCQQYNRYPWTFGGGTKLEIK
B4: 1035211 (antibody, V domains shown)
VH: QVQLQQSGAELARPGASVKMSCKASGYTFTNYTMHWVKQRPGQGLEWIGYINPSSGYTNYNQKFKDKATLTADKSSSTAYMQLSSLTSEDSAVYYCARRNPLYAMDYWGQGTSVTVSS
VL: DIKMTQSPSSMYASLGERVTITCKASQDINSYLNWFQQKPGKSPKTLIYRANRLVDGVPSRFSGSGSGQDYSLTISSLEFEDMGIYYCLQYDEFPYTFGGGTKLEIK
B5: 1035716 (antibody, V domains shown)
VH: EVLLQQSGPELVKPGASVKIPCKASGYTFTDYNMDWVKQSHGKSLEWIGDINPNNGGTIYNQKFKGKATLTVDKSSSTAYMELRSLTSEDTAVYYCAREGYGNYFDYWGQGTTLTVSS
VL: DILLTQSPAILSVSPGERVSFSCRASQSIGTSIHWYQQRTNGSPRLLIKYASESISGIPSRFSGSGSGTDYTLSINSVESEDIADYYCQQSYSWPTTFGAGTKLELK
B6: 1035433 (antibody, V domains shown)
VH: QVQLQQSGPQLVRPGASVKISCKASGYSFTIYWMHWVQQRPGQGLEWIGMIDPSDSETRLNQKFKDKATLTVDKSSSTAYMQLSSPTSEDSAVYYCARRGDYNFDYWGQGTTLTVSS
VL: DIVMTQAAPSVPATPGESVSISCRSSKSLLHSNGNTYLYWFLQRPGQSPQLLIFRMSNLASGVPDRFSGSGSGTAFTLRISRVEAEDVGVYYCMQHLEYPYTFGGGTKLEIK
B7: 1035423 (antibody, V domains shown)
VH: EVKLEESGGGLVQPGGSMKLSCTASGFTFSDAWMDWVRQSPEKGLEWVAEIRNKANNHATYYAESVKGRFTISRDDSKSSVYLQMNSLRAEDTGIYYCILFITYAMDYWGQGTSVTVSS
VL: DIVLTQSQKFMSTSVGDRVSITCKASQNVRTAVAWYQQKPGQSPKALIYLASNRHTGVPDRFTGSGSGTDFTLTISNVQSEDLADYFCLQHWNYPLTFGSGTKLELK

Key:
Experiment in all cases: flow cytometry, blocking of binding to hACE-2 cells
[1] = molecular target: BR P.1 variant RBD (R319-F541 with K417T, E484K, N501Y), C-terminal 6-His (SARS-CoV-2, UniProt P0DTC2 319-541)
[2] = molecular target: rSARS2 RBD aa319-541, N439K, C-His (SARS-CoV-2, UniProt P0DTC2 319-541)
[3] = molecular target: rSARS2-B.1.617.2 S aa16-1211 10+4x aa mut., C-His (SARS-CoV-2, UniProt P0DTC2 16-1211)
[4] = molecular target: IN v2 variant RBD (R319-F541 with L452R, T478K) (SARS-CoV-2, UniProt P0DTC2 319-541)
[5] = molecular target: rSARS2-B.1.1.7 S aa16-1211 2x aa mut., C-His (SARS-CoV-2, UniProt P0DTC2 16-1211)
[6] = molecular target: T1, recombinant SARS-CoV-2 spike S1 RBD (R319-F541), C-terminal 6-His (SARS-CoV-2, UniProt P0DTC2 319-541)
[7] = molecular target: T1, recombinant SARS-CoV-2 spike S1 RBD …; remark: listed apart in the source
[8] = molecular target: rSARS2-B.1.1.7 S aa16-1211 4x aa mut., C-His (SARS-CoV-2, UniProt P0DTC2 16-1211)

Binder | percent blocking [1] [%] | percent blocking [2] [%] | percent blocking [3] [%] | percent blocking [4] [%] | percent blocking [5] [%] | percent blocking [6] [%] | percent blocking [7] [%] | percent blocking [8] [%]
B1 | 0.4 | 43 | 73.5 | 37.4 | 17.8 | 85.2 | 85.2 | –
B2 | 14.9 | 25.2 | 0 | 0.9 | 12 | 94.1 | 94.1 | 35.8
B3 | 77.2 | 53 | 0 | 0.8 | 81.4 | 94.5 | 94.5 | 74.4
B4 | 0 | 18.1 | 0 | 1.7 | 76.3 | 98.7 | 98.7 | 72.4
B5 | 95 | 96.2 | 89.3 | 96.5 | 94.4 | 94.6 | 94.6 | 81.5
B6 | 0 | 0.9 | 93.8 | 18.4 | 82 | 93.7 | 93.7 | 23.5
B7 | 22 | 34.6 | 89.5 | 81.4 | 71.1 | 94.1 | 94.1 | 75.9
